Results from the supplement of paper PMC7877785.
± gives the uncertainty stated by the source.

Assay: self-splicing fitness, log relative to wild type (ln ratio); higher = more splicing; Tetrahymena group I intron in knt gene, E. coli kanamycin selection, DiMSum; sequences stand for … in CUCUCU…GGAGGGAAAAGUUAUCAGGCAUGCACCUGGUAGCUAGUCUUUAAACCAAUAGAUUGCAUCGGUUUAAAAGGCAAGACCGUCAAAUUGCGGGAAAGGGGUCAACAGCCGUUCAGUACCAAGUCUCAGGGGAAACUUUGAGAUGGCCUUGCAAAGGGUAUGGUAAUAAGCUGACGGACAUGGUCCUAACCACGCAGCCAAGUCCUAAGUCAACAGAUCUUCUGUUGAUAUGGAUGCAGUUCACAGACUAAAUGUCGGUCGGGGAAGAUGUAUUCUUCUCAUAAGAUAUAGUCGGACCUCUCCUUAAUGGGAGCUAGCGGAUGAAGUGAUGCAACACUGGAGCCGCUGGGAACUAAUUUGUAUGCGAAAGUAUAUUGAUUAGUUUUGGAGUACUCGUGGUCG
Summary of the method: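 Fitness was computed with DiMSum as the error-weighted combination of replicate fold changes, kanamycin versus none, each normalised to wild type. The library randomised all eight intron nucleotides of the P1ex region, with the intron placed in the knt kanamycin-resistance gene on pET-22b(+) in E. coli BL21(DE3). Six replicate transformations were grown overnight at 37°C or 30°C on LB agar with or without 25 μg/mL kanamycin, plus 100 μg/mL carbenicillin, 50 μM IPTG and 0.2% rhamnose. Pooled colonies were amplicon-sequenced on an Illumina HiSeq 2500.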

Row | Sequence | self-splicing fitness (ln) (30 °C) | self-splicing fitness (ln) (37 °C)
1 | AAGAAGCAAUAUUACGGCAC | -0.764 ± 0.08 | -0.298 ± 0.12
2 | GCUUAGCAAUAUUACGACGU | -0.576 ± 0.13 | 0.408 ± 0.16
3 | AUGUAGCAAUAUUACGAGUG | -2.52 ± 0.12 | -2.72 ± 0.18
4 | UCCCAGCAAUAUUACGUACA | -1.92 ± 0.14 | -0.819 ± 0.1
5 | GUGCAGCAAUAUUACGCAGC | -3.21 ± 0.34 | -1.3 ± 0.34
6 | ACCGAGCAAUAUUACGAUAG | -3.12 ± 0.21 | -2.42 ± 0.24
7 | GCAAAGCAAUAUUACGAAUA | -2.56 ± 0.17 | -0.704 ± 0.13
8 | CCACAGCAAUAUUACGGACC | -4.45 ± 0.31 | -1.54 ± 0.22
9 | AAAGAGCAAUAUUACGGGAG | -3.34 ± 0.21 | -2.8 ± 0.27
10 | UACGAGCAAUAUUACGGCGG | -1.79 ± 0.13 | -1.08 ± 0.17
11 | CCAUAGCAAUAUUACGCCCA | -1.9 ± 0.34 | -1.86 ± 0.35
12 | UGCGAGCAAUAUUACGUAUC | -1.76 ± 0.16 | -2.37 ± 0.34
13 | GCCCAGCAAUAUUACGAAAC | -1.34 ± 0.058 | -0.851 ± 0.078
14 | ACAGAGCAAUAUUACGAGAC | -3.23 ± 0.37 | -2.67 ± 0.31
15 | AGUUAGCAAUAUUACGACCU | -0.34 ± 0.09 | -0.469 ± 0.097
16 | UCGGAGCAAUAUUACGCGAG | -3.29 ± 0.45 | -1.64 ± 0.27
17 | UACAAGCAAUAUUACGCCCC | -2.04 ± 0.49 | 
18 | ACCCAGCAAUAUUACGUUCC | -2.32 ± 0.11 | -1.02 ± 0.14
19 | UCCAAGCAAUAUUACGGAAU | -3.72 ± 0.3 | -2.97 ± 0.33
20 | AAAGAGCAAUAUUACGUUUA | -1.71 ± 0.17 | -1.12 ± 0.21

Row | Sequence | self-splicing fitness (ln) (30 °C) | self-splicing fitness (ln) (37 °C)
21 | UUCUAGCAAUAUUACGUUUC | -2.75 ± 0.39 | -2.47 ± 0.3
22 | CGUUAGCAAUAUUACGAAUA | -1.54 ± 0.17 | -1.69 ± 0.36
23 | AUUUAGCAAUAUUACGAAAU | -2 ± 0.31 | -1.54 ± 0.27
24 | UGUGAGCAAUAUUACGCGCU | -2.53 ± 0.27 | -3.1 ± 0.37
25 | UAUAAGCAAUAUUACGUCCG | -0.775 ± 0.11 | -0.223 ± 0.15
26 | GUCGAGCAAUAUUACGACGU | -0.827 ± 0.19 | -0.341 ± 0.16
27 | UACCAGCAAUAUUACGCCUC | -2.32 ± 0.19 | -0.554 ± 0.18
28 | AUUGAGCAAUAUUACGACGG | -4.09 ± 0.31 | -3.4 ± 0.26
29 | AAAUAGCAAUAUUACGACAG | -2.02 ± 0.13 | -1.34 ± 0.16
30 | CGUGAGCAAUAUUACGUGUC | -3 ± 0.4 | -3.04 ± 0.43
31 | UCACAGCAAUAUUACGCCUC | -2.06 ± 0.35 | 
32 | CGUCAGCAAUAUUACGACUC | -0.282 ± 0.11 | 0.339 ± 0.16
33 | UCGUAGCAAUAUUACGCAUC |  | -2.63 ± 0.36
34 | ACUUAGCAAUAUUACGAUAG | -2.71 ± 0.12 | -1.7 ± 0.16
35 | CGGUAGCAAUAUUACGGGAG | -3.22 ± 0.17 | -1.71 ± 0.14
36 | ACGGAGCAAUAUUACGGCGC | 0.159 ± 0.44 | -0.221 ± 0.45
37 | AGAGAGCAAUAUUACGCGCU | -1.89 ± 0.35 | 
38 | GUCGAGCAAUAUUACGUAAC | -0.996 ± 0.13 | -0.434 ± 0.14
39 | CAGAAGCAAUAUUACGAUAU | -3.56 ± 0.2 | -2.53 ± 0.15
